Measurements from patent US20190062420A1 (Janssen / Centocor, published 2019).

T1: human FcγRIIB (NM_004001) expressed on cells (human, UniProt P31994 43-310)
T1 sequence: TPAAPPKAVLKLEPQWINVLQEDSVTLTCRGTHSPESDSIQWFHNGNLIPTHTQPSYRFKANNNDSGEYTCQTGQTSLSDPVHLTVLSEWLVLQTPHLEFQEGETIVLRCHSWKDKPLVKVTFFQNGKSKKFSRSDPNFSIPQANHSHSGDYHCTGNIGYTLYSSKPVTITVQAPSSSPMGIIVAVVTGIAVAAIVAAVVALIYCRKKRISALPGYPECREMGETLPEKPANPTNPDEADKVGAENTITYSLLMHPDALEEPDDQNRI

T2: human FcγRIIA (NM_021642) expressed on cells (human, UniProt P12318 36-317)
T2 construct: Transiently expressed on Expi293F cells; also used here for FcγRIIA on human macrophages in the ADCP assay; also called Expi293F FcγRIIA; HEK293F cells expressing FcγRIIA
T2 sequence: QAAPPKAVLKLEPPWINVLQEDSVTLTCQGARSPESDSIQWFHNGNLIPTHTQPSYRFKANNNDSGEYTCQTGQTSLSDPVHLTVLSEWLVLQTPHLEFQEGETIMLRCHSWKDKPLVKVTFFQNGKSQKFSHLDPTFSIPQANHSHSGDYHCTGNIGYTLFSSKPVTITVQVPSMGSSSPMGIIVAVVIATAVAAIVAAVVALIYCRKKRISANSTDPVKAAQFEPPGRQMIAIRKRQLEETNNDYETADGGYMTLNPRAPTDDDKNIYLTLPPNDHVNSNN

T3: FcγRIIB protein (human, UniProt P31994 43-217, biotinylated (SureLINK Biotin Kit) in the ELISA of Example 1)
T3 construct: Soluble/recombinant antigen used in ELISA; also called bt-FcγRIIB; recombinant FcγRIIB protein
T3 sequence: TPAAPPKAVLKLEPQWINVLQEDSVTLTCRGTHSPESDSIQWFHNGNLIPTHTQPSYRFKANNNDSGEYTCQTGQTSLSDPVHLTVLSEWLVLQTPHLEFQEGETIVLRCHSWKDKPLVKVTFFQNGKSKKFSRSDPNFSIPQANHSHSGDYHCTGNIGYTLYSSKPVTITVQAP

B1: OX40SF2IgG2sigma_R2BS29_HC-C (bispecific antibody)
heavy: QVQLVQSGAEVKKPGSSVKVSCKASGYTFKDYTMHWVRQAPGQGLEWIGGIYPNNGGSTYNQNFKDRVTLTADKSTSTAYMELSSLRSEDTAVYYCARMGYHGPHLDFDVWGQGTTVTVSSASTKGPSVFPLAPCSRSTSESTAALGCLVKDYFPEPVTVSWNSGALTSGVHTFPAVLQSSGLYSLSSVVTVPSSNFGTQTYTCNVDHKPSNTKVDKTVERKCCVECPPCPAPPAAASSVFLFPPKPKDTLMISRTPEVTCVVVDVSAEDPEVQFNWYVDGVEVHNAKTKPREEQFNSTFRVVSVLTVLHQDWLNGKEYKCKVSNKGLPSSIEKTISKTKGQPREPQVYTLPPSREEMTKNQVSLTCLVKGFYPSDIAVEWESNGQPENNYKTTPPMLDSDGSFFLYSKLTVDKSRWQQGNVFSCSVMHEALHNHYTQKSLSLSPGKGGGGGSGGGGSGGGGSGGGGSLPAPKNLVVSRVTEDSARLSWTAPDAAFDSFPIYYWEYRVGGEAIVLTVPGSERSYDLTGLKPGTEYFVYINGVKGGEESRPLSAIFTT
light: DIQMTQSPSSLSASVGDRVTITCKASQDVGAAVAWYQQKPGKAPKLLIYWASTRHTGVPSRFSGSGSGTDFTLTISSLQPEDFATYYCQQYINYPLTFGGGTKVEIKRTVAAPSVFIFPPSDEQLKSGTASVVCLLNNFYPREAKVQWKVDNALQSGNSQESVTEQDSKDSTYSLSSTLTLSKADYEKHKVYACEVTHQGLSSPVTKSFNRGEC
notes: mAbtyrin: anti-OX40 antibody OX40SF2, effector silent IgG2sigma, with linker and R2BS29 FN3 domain at the C-terminus of the heavy chain; also called mAbtyrin
B2: OX40SF2IgG1 (antibody)
heavy: not shown
light: DIQMTQSPSSLSASVGDRVTITCKASQDVGAAVAWYQQKPGKAPKLLIYWASTRHTGVPSRFSGSGSGTDFTLTISSLQPEDFATYYCQQYINYPLTFGGGTKVEIKRTVAAPSVFIFPPSDEQLKSGTASVVCLLNNFYPREAKVQWKVDNALQSGNSQESVTEQDSKDSTYSLSSTLTLSKADYEKHKVYACEVTHQGLSSPVTKSFNRGEC
notes: Anti-OX40 antibody, wild-type IgG1; control without FN3 domain
B3: OX40SF2IgG2sigma (antibody)
heavy: QVQLVQSGAEVKKPGSSVKVSCKASGYTFKDYTMHWVRQAPGQGLEWIGGIYPNNGGSTYNQNFKDRVTLTADKSTSTAYMELSSLRSEDTAVYYCARMGYHGPHLDFDVWGQGTTVTVSSASTKGPSVFPLAPCSRSTSESTAALGCLVKDYFPEPVTVSWNSGALTSGVHTFPAVLQSSGLYSLSSVVTVPSSNFGTQTYTCNVDHKPSNTKVDKTVERKCCVECPPCPAPPAAASSVFLFPPKPKDTLMISRTPEVTCVVVDVSAEDPEVQFNWYVDGVEVHNAKTKPREEQFNSTFRVVSVLTVLHQDWLNGKEYKCKVSNKGLPSSIEKTISKTKGQPREPQVYTLPPSREEMTKNQVSLTCLVKGFYPSDIAVEWESNGQPENNYKTTPPMLDSDGSFFLYSKLTVDKSRWQQGNVFSCSVMHEALHNHYTQKSLSLSPGK
light: DIQMTQSPSSLSASVGDRVTITCKASQDVGAAVAWYQQKPGKAPKLLIYWASTRHTGVPSRFSGSGSGTDFTLTISSLQPEDFATYYCQQYINYPLTFGGGTKVEIKRTVAAPSVFIFPPSDEQLKSGTASVVCLLNNFYPREAKVQWKVDNALQSGNSQESVTEQDSKDSTYSLSSTLTLSKADYEKHKVYACEVTHQGLSSPVTKSFNRGEC
notes: Anti-OX40 antibody, IgG2 sigma isotype (effector silent Fc: V234A, G237A, P238S, H268A, V309L, A330S, P331S against wild type IgG2); control without FN3 domain; also called parental antibody; parental OX40 antibody

How the values were obtained:
[1] = biological target: T1, human FcγRIIB (NM_004001) expressed on …; assay: cell-based or functional assay
[2] = biological target: T4, human FcγRI (NM_000566) expressed on cells (human, UniProt P12314 16-374); assay: flow cytometry; Expi293F cells transfected with FcγRI
T4 construct: Transiently expressed on Expi293F cells
T4 sequence (P12314 16-374 limits assumed): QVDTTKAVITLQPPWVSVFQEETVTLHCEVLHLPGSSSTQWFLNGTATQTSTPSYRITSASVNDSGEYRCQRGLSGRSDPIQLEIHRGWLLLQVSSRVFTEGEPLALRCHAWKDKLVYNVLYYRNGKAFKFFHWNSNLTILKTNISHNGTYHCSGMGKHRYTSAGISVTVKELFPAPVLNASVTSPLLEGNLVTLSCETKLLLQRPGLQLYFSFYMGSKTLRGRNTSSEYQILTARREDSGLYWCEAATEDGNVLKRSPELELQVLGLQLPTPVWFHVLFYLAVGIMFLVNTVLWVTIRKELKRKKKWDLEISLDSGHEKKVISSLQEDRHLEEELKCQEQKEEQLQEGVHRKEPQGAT
Method: (§1) Plasmids expressing cDNAs encoding human FcγRI (NM_000566) (SEQ ID NO: 44), FcγRIIA (NM_021642) (SEQ ID NO: 2), FcγRIIB (NM_004001) (SEQ ID NO: 3), and FcγRIIIA (NM_000569) (SEQ ID NO: 45) (Origene) were transiently transfected into Expi293F cells by ExpiFectamine293 transfection kit (Life Technologies). Flow cytometry assays were performed 48 h after transfection.
(§2) 2×10⁵ cells per well were seeded in 96-well plate and blocked in BSA Stain Buffer (BD Biosciences, San Jose, USA) for 30 min at 4° C. Cells were incubated with test mAbtyrin on ice for 1.5 h at 4° C. After being washed twice with BSA stain buffer, the cells were incubated with R-PE labeled anti-human or anti-mouse IgG secondary antibody (Jackson Immunoresearch Laboratories) for 45 min at 4° C. The cells were washed twice in stain buffer and then resuspended in 150 μL of Stain Buffer containing 1:200 diluted DRAQ7 live/dead stain (Cell Signaling Technology, Danvers, USA). PE and DRAQ7 signals of the stained cells were detected by Miltenyi MACSQuant flow cytometer (Miltenyi Biotec, Auburn, USA) using B2 and B4 channel respectively. Live cells were gated on DRAQ7 exclusion and the geometric mean fluorescence signals were determined for at least 10,000 live events collected. FlowJo software (Tree Star) was used for analysis. Data was plotted as the logarithm of antibody concentration versus mean fluorescence signals. Nonlinear regression analysis was performed by GraphPad Prism 6 (GraphPad Software, Inc.) and EC₅₀ values were calculated.

[3] = biological target: T1, human FcγRIIB (NM_004001) expressed on …; assay: flow cytometry; Expi293F cells transfected with FcγRIIB
[4] = biological target: T2, human FcγRIIA (NM_021642) expressed on …; assay: flow cytometry; Expi293F cells transfected with FcγRIIA
Method: as §1, §2

[5] = biological target: T5, human FcγRIIIA (NM_000569) expressed on cells (human, UniProt P08637 17-254); assay: flow cytometry; Expi293F cells transfected with FcγRIIIA
T5 construct: Transiently expressed on Expi293F cells; also used here for FcγRIIIA on the engineered effector cells of the ADCC reporter bioassay (Promega); also called FcγIIIA
T5 sequence (P08637 17-254 limits assumed): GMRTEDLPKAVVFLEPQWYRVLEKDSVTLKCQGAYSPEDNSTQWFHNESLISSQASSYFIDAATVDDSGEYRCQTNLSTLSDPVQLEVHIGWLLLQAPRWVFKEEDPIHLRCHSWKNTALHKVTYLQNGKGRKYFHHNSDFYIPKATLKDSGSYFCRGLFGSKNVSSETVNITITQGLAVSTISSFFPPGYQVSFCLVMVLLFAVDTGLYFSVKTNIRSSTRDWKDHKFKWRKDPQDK
Method: as §1, §2

FcγRIIB protein = biological target: T3, FcγRIIB protein; assay: ELISA; FcγRIIB protein coated on plate, anti-human IgG-HRP detection
Method: Effect of the mAbtyrins on T cell activation was evaluated. Briefly, recombinant FcγRIIB or FcγRIIA protein was coated on the plate to provide the crosslinking activity. For T cell activation assay, 100 μL of 30 ng/mL anti-CD3 antibody (OKT3) and 1 μg/mL FcγRIIB or FcγRIIA protein in DPBS were coated in U-bottomed 96-well tissue culture plate overnight. CD4 positive T cells were isolated from PBMC by negative selection. OX40 expression was induced by culturing the isolated T cells in the presence of 1 μg/mL PHA overnight. On the assay day, the coating solution in the plate were aspirated and 150 μL RPMI media was added to block the plate. The cultured T cells were washed three times by RPMI culture media and between 25,000 to 50,000 CD4 positive T cells were seeded in each well in the assay plate. Test mAbtyrins were added to the cells and the plate was incubated for 3 days. T cell activation was assessed by the induction of IFNγ or TNFα production, which was quantitated by human IFNγ or TNFα ELISA detection kit (Biolegend). Prior to T cell activation assay, the binding affinity of mAbtyrins to immobilized FcγRIIB or FcγRIIA protein were evaluated by an ELISA assay. […] The binding of mAbtyrins to immobilized FcγRIIB or FcγRIIA protein were detected by HRP-conjugated anti-Human IgG(γ) secondary antibody and quantitated by ELISA assay using TMB substrate.

| Binder | % activity at 1 µg/ml with Raji cells (HEK-Blue: OX40 NF-κB reporter, relative to 1 µg/ml OX40 ligand) [1] | fold of agonism enhancement upon crosslinking (Raji cells) [1] | EC50 [2] | EC50 [3] | EC50 [4] | EC50 [5] | binding result (FcγRIIB protein) |
| --- | --- | --- | --- | --- | --- | --- | --- |
| B1 | 86% | 15 fold | > 10 µg/mL | 0.512 µg/mL | 0.066 µg/mL | > 10 µg/mL | – |
| B2 | – | – | 0.494 µg/mL | – | 3.3 µg/mL | 0.339 µg/mL | no binding |
| B3 | 2.2% | 1 fold | – | > 10 µg/mL | – | – | no binding |
